First the molecules themselves.
B1: target 3 insG 3' of 11,insU 3' of 4 (mixed)
RNA 1: CACCCGUGCAAAAUUGCAGGGGUCUAAAACGACCUGAAUAUUUCAGAUCAAA
RNA 2: GGGAAUGGAUCCACAUCUACGAAUUCGUUUUUGAUCUGAAAGUAUUCAGUGUCUGCAGAUCGGAAGAGCACACGU
B2: target 3 G4C,A12U (mixed)
RNA 1: B1 RNA 1
RNA 2: GGGAAUGGAUCCACAUCUACGAAUUCGUUUUUGAUCUGAUAUAUUCACGUCUGCAGAUCGGAAGAGCACACGU
B3: target 3 G3U,G4C (mixed)
RNA 1: B1 RNA 1
RNA 2: B2 RNA 2 with U40A, G49U
B4: target 3 U2C,U7G (mixed)
RNA 1: B1 RNA 1
RNA 2: B2 RNA 2 with U40A, U45G, C48G, U50C
B5: target 3 insG 3' of 16,insA 3' of 2 (mixed)
RNA 1: B1 RNA 1
RNA 2: B1 RNA 2 with U37G, G38U, A39G, G42A, U50G, G51U, U52A
B6: target 3 insG 3' of 9,insG 3' of 5 (mixed)
RNA 1: B1 RNA 1
RNA 2: B1 RNA 2 with G42U, U43A, A44G, U50G
B7: target 3 C1U,G3U (mixed)
RNA 1: B1 RNA 1
RNA 2: B2 RNA 2 with U40A, C48G, G49U, C51U
B8: target 3 insC 3' of 7,insC 3' of 5 (mixed)
RNA 1: B1 RNA 1
RNA 2: B1 RNA 2 with G42U, U43A, A44U, U46C, G49C, U50G
B9: target 3 G3U (mixed)
RNA 1: B1 RNA 1
RNA 2: B2 RNA 2 with U40A, C48G, G49U
B10: target 3 insG 3' of 9,insA 3' of 7 (mixed)
RNA 1: B1 RNA 1
RNA 2: B1 RNA 2 with G42U, U43A, A44G, C47A, A48C, G49A, U50G
B11: target 3 insG 3' of 8,insG 3' of 7 (mixed)
RNA 1: B1 RNA 1
RNA 2: B1 RNA 2 with G42U, U43A, A44U, U45G, C47G, A48C, G49A, U50G
B12: target 3 C1A,G3U (mixed)
RNA 1: B1 RNA 1
RNA 2: B2 RNA 2 with U40A, C48G, G49U, C51A
B13: target 3 G4U,U8G (mixed)
RNA 1: B1 RNA 1
RNA 2: B2 RNA 2 with U40A, U44G, C48U
B14: target 3 insU 3' of 22,insU 3' of 22 (mixed)
RNA 1: B1 RNA 1
RNA 2: GGGAAUGGAUCCACAUCUACGAAUUCGUUUUUUUGAUCUGAAAUAUUCAGGUCUGCAGAUCGGAAGAGCACACGU
B15: target 1 insC 3' of 20 (mixed)
RNA 1: CACCCGUGCAAAAAUGCAGGGGUCUAAAACUGAGCGGAUAACCUCUCUAUGG
RNA 2: GGGAAUGGAUCCACAUCUACGAAUUCGUACCACUAGAGAGGUUAUCCGCUCACCGAGAUCGGAAGAGCACACGU

Changes are numbered by the printed parent chain. Numbers in names are those of the source.

The data set addresses T1, EsCas13d, nuclease-dead (Eubacterium siraeum, UniProt B0MS50, R295A;H300A;R849A;H854A).
T1 sequence: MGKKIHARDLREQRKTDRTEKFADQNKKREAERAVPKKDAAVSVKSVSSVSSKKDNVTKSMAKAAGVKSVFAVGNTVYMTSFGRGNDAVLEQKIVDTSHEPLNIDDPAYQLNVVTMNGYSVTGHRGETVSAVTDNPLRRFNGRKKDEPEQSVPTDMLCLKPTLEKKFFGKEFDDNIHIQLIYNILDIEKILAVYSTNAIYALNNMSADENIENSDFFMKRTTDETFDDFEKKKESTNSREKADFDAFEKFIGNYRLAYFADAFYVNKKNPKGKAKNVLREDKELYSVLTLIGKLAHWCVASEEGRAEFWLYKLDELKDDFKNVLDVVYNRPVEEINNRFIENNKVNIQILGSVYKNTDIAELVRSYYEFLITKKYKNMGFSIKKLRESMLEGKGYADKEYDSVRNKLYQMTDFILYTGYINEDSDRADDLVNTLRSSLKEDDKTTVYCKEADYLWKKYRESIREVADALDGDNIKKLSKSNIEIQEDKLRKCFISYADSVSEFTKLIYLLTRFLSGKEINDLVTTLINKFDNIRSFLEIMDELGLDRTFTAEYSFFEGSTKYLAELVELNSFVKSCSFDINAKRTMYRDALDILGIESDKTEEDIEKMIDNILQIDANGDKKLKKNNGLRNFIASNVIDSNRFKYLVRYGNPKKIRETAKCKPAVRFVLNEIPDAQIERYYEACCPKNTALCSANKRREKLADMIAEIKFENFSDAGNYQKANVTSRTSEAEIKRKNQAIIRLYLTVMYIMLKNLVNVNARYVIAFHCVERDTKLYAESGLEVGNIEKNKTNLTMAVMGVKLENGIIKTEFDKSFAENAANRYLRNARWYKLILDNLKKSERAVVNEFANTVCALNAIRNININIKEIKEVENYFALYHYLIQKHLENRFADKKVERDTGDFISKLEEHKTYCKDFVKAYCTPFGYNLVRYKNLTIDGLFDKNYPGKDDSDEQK
Kind of data set: crRNA (strand 1, pre-loaded); Mg2+; 40 mM Tris-HCl pH 7.5, 150 mM NaCl, 6 mM MgCl2, 1 mM DTT, 0.1% Tween-20, 0.2 mg/ml BSA; 25 C; 10 min per concentration, then washed. Conditions: tags: His6-TwinStrep-SUMO cleaved; N-terminal SNAP kept (SNAP-Surface 488); label: 3' end held by stalled T7 RNA polymerase.
As usually defined, the Kd is a measure of binding affinity in units of concentration. For B1, the equilibrium dissociation constant (Kd) is 55.5 ± 10.5 nM.
Consider B2, for which the dissociation constant Kd came to 110 ± 45 nM.
In the case of B3, binding was put at a Kd of 10.5 ± 1 nM.
For the molecule B4, the Kd turned out to be 86 ± 33 nM.
With B5, the equilibrium dissociation constant (Kd) was found to be 75 ± 30 nM.
As to B6, the dissociation constant (Kd) came out at 60 ± 13.5 nM.
As for B7, the figure is 45.5 ± 11.5 nM; as for B8, 108 ± 18.5 nM; as for B9, 22.9 ± 2.2 nM.
Molecule B10 gave a Kd of 43.5 ± 5.5 nM.
In turn, B11 displayed a Kd of 37.4 ± 3.15 nM.
In the case of B12, the Kd is approximately 75 nM.
In turn, B13 came in with an equilibrium dissociation constant (Kd) of 16.4 ± 2.35 nM.
In turn, B14 gave a Kd of 24.1 ± 3 nM.
Consider B15, for which the Kd came to 6.4 ± 0.4 nM.

(Values after article PMC10786891, “Massively parallel profiling of RNA-targeting CRISPR-Cas13d”.)
